In US20220162649A1, “NOVEL NUCLEIC ACID MODIFIERS” (THE BROAD INSTITUTE, INC., priority 2019, published 2022):
Changes are numbered by the printed parent chain. In names and notes the source's numbering stands.

B1: SaCas9 T787A: SaCas9 phosphate lock loop mutant (protein, UniProt J7RUA5 1-1053, looked up, variant T787A)
CRISPR-associated …: MKRNYILGLDIGITSVGYGIIDYETRDVIDAGVRLFKEANVENNEGRRSKRGARRLKRRRRHRIQRVKKLLFDYNLLTDHSELSGINPYEARVKGLSQKLSEEEFSAALLHLAKRRGVHNVNEVEEDTGNELSTKEQISRNSKALEEKYVAELQLERLKKDGEVRGSINRFKTSDYVKEAKQLLKVQKAYHQLDQSFIDTYIDLLETRRTYYEGPGEGSPFGWKDIKEWYEMLMGHCTYFPEELRSVKYAYNADLYNALNDLNNLVITRDENEKLEYYEKFQIIENVFKQKKKPTLKQIAKEILVNEEDIKGYRVTSTGKPEFTNLKVYHDIKDITARKEIIENAELLDQIAKILTIYQSSEDIQEELTNLNSELTQEEIEQISNLKGYTGTHNLSLKAINLILDELWHTNDNQIAIFNRLKLVPKKVDLSQQKEIPTTLVDDFILSPVVKRSFIQSIKVINAIIKKYGLPNDIIIELAREKNSKDAQKMINEMQKRNRQTNERIEEIIRTTGKENAKYLIEKIKLHDMQEGKCLYSLEAIPLEDLLNNPFNYEVDHIIPRSVSFDNSFNNKVLVKQEENSKKGNRTPFQYLSSSDSKISYETFKKHILNLAKGKGRISKTKKEYLLEERDINRFSVQKDFINRNLVDTRYATRGLMNLLRSYFRVNNLDVKVKSINGGFTSFLRRKWKFKKERNKGYKHHAEDALIIANADFIFKEWKKLDKAKKVMENQMFEEKQAESMPEIETEQEYKEIFITPHQIKHIKDFKDYKYSHRVDKKPNRELINDALYSTRKDDKGNTLIVNNLNGLYDKDNDKLKKLINKSPEKLLMYHHDPQTYQKLKLIMEQYGDEKNPLYKYYEETGNYLTKYSKKDNGPVIKKIKYYGNKLNAHLDITDDYPNSRNKVVKLSLKPYRFDVYLDNGVYKFVTVKNLDVIKKENYYEVNSKCYEEAKKLKKISNQAEFIASFYNNDLIKINGELYRVIGVNNDLLNRIEVNMIDITYREYLENMNDKRPPRIIKTIASKTQSIKKYSTDILGNLYEVKSKKHPQIIKKG
B2: E477A: SaCas9 RuvC catalytic residue mutant (protein, UniProt J7RUA5 1-1053, looked up, variant E477A)
CRISPR-associated …: B1 CRISPR-associated … with E477A, A787T
B3: D10A: SaCas9 RuvC catalytic residue mutant (protein, UniProt J7RUA5 1-1053, looked up, variant D10A)
CRISPR-associated …: B1 CRISPR-associated … with D10A, A787T
B4: N580A: SaCas9 HNH catalytic residue mutant (protein, UniProt J7RUA5 1-1053, looked up, variant N580A)
CRISPR-associated …: B1 CRISPR-associated … with N580A, A787T
B5: H701A: SaCas9 RuvC catalytic residue mutant (protein, UniProt J7RUA5 1-1053, looked up, variant H701A)
CRISPR-associated …: B1 CRISPR-associated … with H701A, A787T
B6: D704A: SaCas9 RuvC catalytic residue mutant (protein, UniProt J7RUA5 1-1053, looked up, variant D704A)
CRISPR-associated …: B1 CRISPR-associated … with D704A, A787T
B7: D556A: SaCas9 HNH catalytic residue mutant (protein, UniProt J7RUA5 1-1053, looked up, variant D556A)
CRISPR-associated …: B1 CRISPR-associated … with D556A, A787T
B8: H557A: SaCas9 HNH catalytic residue mutant (protein, UniProt J7RUA5 1-1053, looked up, variant H557A)
CRISPR-associated …: B1 CRISPR-associated … with H557A, A787T

system: NHEJ pathway; experiment: HiBiT assay of HDR enhancement by small-molecule NHEJ pathway inhibitors; format: cell-based; conditions: not given

Molecule	HDR enhancement in the HiBiT assay
O=c1cc(N2CCOCC2)oc2c(-c3cccc4c3sc3ccccc34)cccc12 [KU-57788]	enhanced HDR enhancement
CCN1CCN(CC(=O)Nc2ccc(-c3cccc4c(=O)cc(N5CCOCC5)oc34)c3sc4ccccc4c23)CC1 [KU-0060648]	enhanced HDR enhancement

system: target DNA; experiment: not given; conditions: SaCas9 mutants; cited from earlier work

Molecule	DNA cleavage activity, in words
B1	reduced DNA cleavage activity
B2	almost no DNA cleavage activities
B3	almost no DNA cleavage activities
B4	almost no DNA cleavage activities
B5	almost no DNA cleavage activities
B6	almost no DNA cleavage activities
B7	almost no DNA cleavage activities
B8	almost no DNA cleavage activities
